From article PMC5120349, “Reconstitution of Targeted Deadenylation by the Ccr4-Not Complex and the YTH Domain Protein Mmi1”

What was measured:
[1] = molecular target: T1, Mmi1 YTH domain (Schizosaccharomyces pombe, UniProt O74958 282-488); assay: fluorescence polarization; 20 mM HEPES pH 7.5, 100 mM NaCl, 1 mM Mg(OAc)2, 0.1 mM TCEP, 10 nM labeled RNA, 10 min at room temperature; Hill-slope fit; conditions: protein: recombinant
T1 sequence: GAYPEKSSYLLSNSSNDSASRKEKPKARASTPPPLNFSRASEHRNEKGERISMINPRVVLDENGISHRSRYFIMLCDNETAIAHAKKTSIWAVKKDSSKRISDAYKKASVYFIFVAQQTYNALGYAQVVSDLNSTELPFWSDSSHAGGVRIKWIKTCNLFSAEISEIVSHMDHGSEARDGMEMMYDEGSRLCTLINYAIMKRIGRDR

[2] = molecular target: recombinant S. pombe Ccr4-Not complex (seven core subunits) (S. pombe) (UniProt O74856)
Sequence of recombinant S. pombe Ccr4-Not complex (seven core subunits) (S. pombe) (O74856 whole entry, looked up, tested part not stated, one chain of several): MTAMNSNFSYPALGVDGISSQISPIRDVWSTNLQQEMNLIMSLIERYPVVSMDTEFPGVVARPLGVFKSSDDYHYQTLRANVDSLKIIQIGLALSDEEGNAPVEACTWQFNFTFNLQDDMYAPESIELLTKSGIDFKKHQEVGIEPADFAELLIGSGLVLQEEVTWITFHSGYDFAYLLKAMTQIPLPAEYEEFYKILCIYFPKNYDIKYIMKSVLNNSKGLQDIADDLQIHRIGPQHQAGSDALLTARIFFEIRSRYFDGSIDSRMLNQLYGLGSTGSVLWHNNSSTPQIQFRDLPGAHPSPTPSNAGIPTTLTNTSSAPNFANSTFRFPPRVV

Binder	Kd ([1]; label: 3' 6-FAM) [nM]	further results
CUCUUUAAAGCUAAAAAGC (ssRNA) [rec8 UUAAAG]	231 ± 7	
CUCUUUAAACCUAAAAAGC (ssRNA) [rec8 UUAAAC]	226 ± 15	
CUCUUUACACCUAAAAAGC (ssRNA) [rec8 UUACAC]	460 ± 25	
CUCUUUAACCCUAAAAAGC (ssRNA) [rec8 UUAACC]	311 ± 13	
Mmi1 (recombinant, S. pombe) (natural protein) MSNTNFSTSRSSKSIPELPNLEALRSLWPPPSLNESGDTRSVWTTHTGEPVASSVLSTSGSNNFSSPLKRPAPESHDAPIGRRLMVDDPRLIKHGKYDFSRHCTDYGHSYEWPYFRSLRRESMLYHTSGSYPESQPPYSSYSTDAPHYYHAGSESSAYYDSRSRLHGIQPPPKRRTLSPPPRRLADPVVVGSSRYVEEEVYRRPPYTLASEVPSSASAYQAGYSSYPVRSSPQLSHEDTRHGIASSGSTRYPFVPANTRASHSPSLLEPYAHSLPSSVAPVGAYPEKSSYLLSNSSNDSASRKEKPKARASTPPPLNFSRASEHRNEKGERISMINPRVVLDENGISHRSRYFIMLCDNETAIAHAKKTSIWAVKKDSSKRISDAYKKASVYFIFVAQQTYNALGYAQVVSDLNSTELPFWSDSSHAGGVRIKWIKTCNLFSAEISEIVSHMDHGSEARDGMEMMYDEGSRLCTLINYAIMKRIGRDR		rate of deadenylation of the rec8^UUAAAC-A30 target RNA by Ccr4-Not with bound Mmi1, against Ccr4-Not without Mmi1 [2]: 5 fold
CUCUUGAAACCUAAAAAGC (ssRNA) [rec8 UGAAAC]	216 ± 14	
CUCUUUCAACCUAAAAAGC (ssRNA) [rec8 UUCAAC]	433 ± 33	
CUCUUUCUCCCUACAAAGC (ssRNA) [rec8 UUCUCC]	1370 ± 140	
CAGCUCCGCAUCCCUUUCCC (ssRNA) [20-mer unstructured RNA]		Kd [1]: 13900 ± 1600 nM
